From patent publication US20140219913A1

Molecular target: TNF-alpha
Test: cell-based or functional assay

Etanercept (Fc fusion)
N-terminal L929 Assay (EC50, pM): 1.5 pM
